Data taken from US20240240159A1.

Legend:
Experiment in all cases: cell-based or functional assay
[1] = target: 341BP NTproBNP epitope-grafted FAD-GDH
[2] = target: Purified NTproBNP antigen (UniProt P16860)
[3] = target: 358BP NTproBNP epitope-grafted FAD-GDH
[4] = target: 358HNL-H3 epitope-grafted FAD-GDH
[5] = target: 358HNL-H1 epitope-grafted FAD-GDH
[6] = target: V5 peptide, Sigma (cat #V7754-4MG)
[7] = target: 341V5 epitope-grafted FAD-GDH

Sequence of UniProt P16860 (P16860 27-134 limits assumed): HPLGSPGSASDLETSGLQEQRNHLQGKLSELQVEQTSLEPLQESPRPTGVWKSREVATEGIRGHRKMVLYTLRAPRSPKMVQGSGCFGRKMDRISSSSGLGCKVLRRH
Sequence of 358BP NTproBNP epitope-grafted FAD-GDH (chain, as listed by the source): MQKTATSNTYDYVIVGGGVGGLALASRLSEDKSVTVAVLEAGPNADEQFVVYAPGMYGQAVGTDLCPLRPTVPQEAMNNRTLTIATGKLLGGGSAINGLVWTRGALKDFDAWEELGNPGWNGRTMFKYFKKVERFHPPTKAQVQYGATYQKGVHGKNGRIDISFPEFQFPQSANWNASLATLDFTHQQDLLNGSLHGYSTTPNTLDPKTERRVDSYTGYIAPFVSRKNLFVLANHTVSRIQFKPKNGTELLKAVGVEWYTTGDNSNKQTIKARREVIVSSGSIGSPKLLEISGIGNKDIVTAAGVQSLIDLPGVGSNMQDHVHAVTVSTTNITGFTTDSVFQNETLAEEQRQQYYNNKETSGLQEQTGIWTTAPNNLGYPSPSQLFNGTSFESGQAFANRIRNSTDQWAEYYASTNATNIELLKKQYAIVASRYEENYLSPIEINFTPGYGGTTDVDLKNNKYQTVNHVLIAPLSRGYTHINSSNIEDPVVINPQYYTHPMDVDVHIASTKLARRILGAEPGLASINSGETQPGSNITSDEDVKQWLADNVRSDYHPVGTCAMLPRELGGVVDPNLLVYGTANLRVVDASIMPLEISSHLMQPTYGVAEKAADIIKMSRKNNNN
Sequence of 358HNL-H1 epitope-grafted FAD-GDH (chain, as listed by the source): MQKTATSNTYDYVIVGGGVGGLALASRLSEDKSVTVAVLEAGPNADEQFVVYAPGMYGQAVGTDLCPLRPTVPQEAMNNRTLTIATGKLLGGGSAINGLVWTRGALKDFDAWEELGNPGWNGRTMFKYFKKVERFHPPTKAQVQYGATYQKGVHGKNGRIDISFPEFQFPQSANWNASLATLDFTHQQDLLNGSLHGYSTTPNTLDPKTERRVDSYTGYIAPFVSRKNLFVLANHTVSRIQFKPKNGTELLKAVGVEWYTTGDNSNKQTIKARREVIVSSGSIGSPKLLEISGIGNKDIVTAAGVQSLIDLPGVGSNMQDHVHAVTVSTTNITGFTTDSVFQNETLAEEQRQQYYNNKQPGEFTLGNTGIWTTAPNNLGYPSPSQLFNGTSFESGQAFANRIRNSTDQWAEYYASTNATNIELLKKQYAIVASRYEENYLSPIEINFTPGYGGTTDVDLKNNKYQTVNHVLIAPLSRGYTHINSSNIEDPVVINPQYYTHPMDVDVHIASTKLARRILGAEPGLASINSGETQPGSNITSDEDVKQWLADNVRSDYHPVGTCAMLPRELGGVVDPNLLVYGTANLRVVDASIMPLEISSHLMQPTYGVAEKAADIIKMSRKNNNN
Sequence of 341BP NTproBNP epitope-grafted FAD-GDH (chain, as listed by the source): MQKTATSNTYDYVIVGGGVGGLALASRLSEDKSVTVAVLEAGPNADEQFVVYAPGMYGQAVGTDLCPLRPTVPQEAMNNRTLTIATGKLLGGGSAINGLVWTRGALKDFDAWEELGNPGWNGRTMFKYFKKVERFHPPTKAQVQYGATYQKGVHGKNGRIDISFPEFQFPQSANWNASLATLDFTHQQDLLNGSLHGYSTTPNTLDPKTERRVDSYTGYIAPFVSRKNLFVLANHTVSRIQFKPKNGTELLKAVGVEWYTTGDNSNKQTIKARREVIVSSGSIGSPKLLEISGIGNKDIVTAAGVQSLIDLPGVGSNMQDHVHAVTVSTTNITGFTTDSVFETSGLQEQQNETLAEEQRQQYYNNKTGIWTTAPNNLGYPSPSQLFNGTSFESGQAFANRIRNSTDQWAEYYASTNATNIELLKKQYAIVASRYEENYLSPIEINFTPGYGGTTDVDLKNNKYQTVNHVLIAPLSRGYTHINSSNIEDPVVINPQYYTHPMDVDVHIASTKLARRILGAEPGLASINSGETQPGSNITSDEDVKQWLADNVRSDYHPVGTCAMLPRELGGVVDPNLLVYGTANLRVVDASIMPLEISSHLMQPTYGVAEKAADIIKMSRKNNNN
Sequence of 358HNL-H3 epitope-grafted FAD-GDH (chain, as listed by the source): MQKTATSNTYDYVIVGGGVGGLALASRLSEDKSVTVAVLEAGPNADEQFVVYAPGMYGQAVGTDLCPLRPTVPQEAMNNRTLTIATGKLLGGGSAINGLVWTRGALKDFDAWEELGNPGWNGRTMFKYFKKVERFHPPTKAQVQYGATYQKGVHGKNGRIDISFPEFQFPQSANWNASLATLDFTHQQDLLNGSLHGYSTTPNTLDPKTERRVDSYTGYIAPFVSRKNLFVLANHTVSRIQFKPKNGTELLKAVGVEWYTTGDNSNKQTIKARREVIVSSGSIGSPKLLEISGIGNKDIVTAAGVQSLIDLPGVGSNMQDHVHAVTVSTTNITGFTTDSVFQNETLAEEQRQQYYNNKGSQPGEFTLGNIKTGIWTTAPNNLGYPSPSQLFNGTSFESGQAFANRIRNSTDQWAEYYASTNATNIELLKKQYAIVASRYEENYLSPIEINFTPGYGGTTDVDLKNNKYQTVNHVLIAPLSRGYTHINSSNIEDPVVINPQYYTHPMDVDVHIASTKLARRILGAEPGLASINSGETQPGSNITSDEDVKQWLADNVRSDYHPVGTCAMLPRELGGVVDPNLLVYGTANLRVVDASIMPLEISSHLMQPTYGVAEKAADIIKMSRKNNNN

## Mouse α-NTproBNP antibody, Biorad (cat #MCA2641)
[1]
  percent inhibition of GDH activity, 500 nM antibody: 25%
[2]
  percent inhibition of 341BP / 358BP by 500 nM antibody in the presence of 5 µM NTproBNP antigen: 0%
[3]
  percent inhibition of GDH activity, 500 nM antibody: 7%

## Mouse α-NTproBNP antibody, Novus (cat #NB200-439)
[2]
  percent inhibition by 500 nM Novus antibody in the presence of 5 µM NTproBNP antigen: 0%
[3]
  percent inhibition of GDH activity, 500 nM antibody: 7%

## Rabbit α-HNL mAb, Abcam (cat #ab206427) (antibody)
[4]
  percent inhibition of GDH activity, 25 nM antibody: 60%
[5]
  percent inhibition of GDH activity, 25 nM antibody: 20%

## α-V5 antibody, mouse monoclonal, Sigma (cat #V8012-50UG)
[6]
  percent inhibition of 341V5 by 300 nM α-V5 antibody in the presence of 3 µM V5 peptide: 9%
[7]
  percent inhibition of GDH activity, 300 nM antibody: 50%
